Here are results for three proteins from PMC12914646 (ACS infectious diseases, 2020).

A word on the stoichiometry N: it is the number of molecules, sites or subunits per partner or assembly.

This data set deals with the molecule itself. The data set is described as follows: crystal structure.

B1: fluorophosphonate-binding hydrolase F (FphF), apo form (enzyme, Staphylococcus aureus, UniProt Q2FUY3 2-253, looked up)
chain: AYISLNYHSPTIGMHQNLTVILPEDQSFFNSDTTVKPLKTLMLLHGLSSDETTYMRYTSIERYANEHKLAVIMPNVDHSAYANMAYGHSYYDYILEVYDYVHQIFPLSKKRDDNFIAGHSMGGYGTIKFALTQGDKFAKAVPLSAVFEAQNLMDLEWNDFSKEAIIGNLSSVKGTEHDPYYLLDKAVAEDKQIPKLLIMCGKQDFLYQDNLDFIDYLSRINVPYQFEDGPGDHDYAYWDQAIKRAITWMVND
As for B1, the “stoichiometry N” value is 4.

B2: FphF with the 2-phenylpiperidine-1-carbonyl moiety of KT129 or KT130 covalently attached to Ser121 (enzyme, Staphylococcus aureus, UniProt Q2FUY3 2-253, looked up)
chain: B1 chain
modifications: 2-phenylpiperidine-1-carbonyl moiety covalently attached to the terminal side chain oxygen atom of Ser121
As for B2, the “stoichiometry N” value amounted to 4.

B3: FphF with the heptyl acyl moiety of 4-MU heptanoate covalently linked to Ser121 (enzyme, Staphylococcus aureus, UniProt Q2FUY3 2-253, looked up)
chain: B1 chain
modifications: heptyl acyl moiety covalently linked to Ser121
Turning to B3, the “stoichiometry N” value came to 4.
